Values of other authors as cited in article PMC3222890.
Read-outs that look alike come from different tables or passages of the source. One block for each substance: values may come before it.

Tests used:
[1] = target: GDI (Saccharomyces cerevisiae) (UniProt P39958)
[2] = target: GDI (Saccharomyces cerevisiae) (UniProt P39958); remark: listed apart in the source
[3] = target: GDI (Saccharomyces cerevisiae) (UniProt P39958); remark: listed apart in the source

UniProt P39958, sequence (P39958 whole entry): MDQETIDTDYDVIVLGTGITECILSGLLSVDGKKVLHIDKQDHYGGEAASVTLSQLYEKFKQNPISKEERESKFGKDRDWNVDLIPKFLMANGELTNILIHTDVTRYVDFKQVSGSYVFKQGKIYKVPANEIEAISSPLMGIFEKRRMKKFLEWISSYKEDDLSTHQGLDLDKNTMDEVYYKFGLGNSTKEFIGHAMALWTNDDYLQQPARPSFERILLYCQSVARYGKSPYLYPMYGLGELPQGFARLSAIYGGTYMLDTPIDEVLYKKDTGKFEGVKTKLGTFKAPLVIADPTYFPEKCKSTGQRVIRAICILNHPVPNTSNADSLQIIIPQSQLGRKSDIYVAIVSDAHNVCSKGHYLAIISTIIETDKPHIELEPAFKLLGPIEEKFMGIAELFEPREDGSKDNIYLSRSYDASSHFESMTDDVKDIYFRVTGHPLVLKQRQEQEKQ

Kd [1]: 330 nM
Substance: Sec4 (from UniProt P07560)

Kd [2]: 18900 nM
Substance: Ypt31 (from UniProt P38555)

Kd [3]: 1500 nM
Substance: Ypt32 (from UniProt P51996)
